From patent US20150232562A1 (Ablynx, published 2015) come the findings set out here.

Test [1] concerns the target T1, recombinant human ErbB2/Fc chimera (human, UniProt P04626 23-652).
T1 construct: bought from R&D Systems; also called rhErbB2-Fc; rhErb2-Fc; Fc part of the bought chimera not given; not described
As to the kind of experiment: ELISA, coated ErbB2/Fc. Background: An ELISA detects its analyte on a solid surface through an enzyme-linked reagent.

Test [2] concerns the target T2, Epidermal Growth Factor Receptor 2 (HER2) (human, UniProt P04626 23-1255).
T2 construct: whole, on cells; the cell line is named under assay; also called ErbB-2; ERBB2
As to the kind of experiment: FMAT competition on SKBR3 cells, periplasmic extract.

B1: 118N121_A2_2_OK/1-124 (VHH)
VHH: KVQLVESGGGLVQAGGSLRLSCAASGRTFSNYSVGWFRQAPGKEREFVAALSKDGARTYYAASVKGRFTIYRDNAKNVVYLQMSVLNGEDTAVYYCAADHFTFMSNLPSEYDYWGQGTQVTVSS
notes: C-term myc-His6 tag
Consider B1, for which the binding result in test [1] is listed as “binds”.

B2: 118N121_A11_1_OK/1-120 (VHH)
VHH: EVQLVESGGGLVQPGGSLRLSCAASGFPFGMYGMRWVRQAPGKGPERVSSINSDGDTTYYADSVKGRFTISRDNDENMLYLQMNSLKPEDTAVYYCATGFSDRSFAVTHKGQGTQVTVSS
notes: C-term myc-His6 tag
For the molecule B2, the binding result in test [1] is “binds”.

B3: 118N121_B2_1_OK/1-130 (VHH)
VHH: EVQLVESGGGLVQAGGSLRLSCAASGFSLDDRAIAWFRQAPGKAREGVSCITPHHGGIIFTRESVKGRFATSSDSAKNTVYLQMHSLKPEDTAVYYCATLRTDYSINWANCQRDSLYGYWGQGTQVTVSS
notes: C-term myc-His6 tag
In the case of B3, the binding result in test [1] was “binds”.

B4: 118N121_A10_1_OK/1-131 (VHH)
VHH: EVQLVESGGGLVQAGGSLRLSCAASGFSFADYAIGWFRQAPGKEREGVSCIANSEGTKYYADSAQGRLPISSDNAKKTVYLQMDSLKPEDTAVYYCAALPYTICPVVVKKGAVYYGVDDYWGKGTQVTVSS
notes: C-term myc-His6 tag
Take B4: the binding result in test [1] is “binds”.

B5: 118N121_A7_1_OK/1-122 (VHH)
VHH: EVQLVESGGGLVQPGGSLRLSCAASGNIKSIDVMGWHRQAPGKERELVSDISFGGNTNYANSVKGRFTISRDNAKNTVYLQMNSLKPEDTAVYYCYADILYKTDIYYRNDFWGQGTQVTVSS
notes: C-term myc-His6 tag
Turning to B5, the binding result in test [1] is reported as “binds”.

B6: 118N121_B7_4_OK/1-124 (VHH)
VHH: EVQLVESGGGLEQAGGSLRLSCAASGLTFRSAAMGWFRQGPGKEREFVAAISRDGAATYYTDSVKGRFTISRDNAKNTVFLQMNSLKPEDTAIYYCAADFRLARLRVADDYDYWGQGTQVTVSS
notes: C-term myc-His6 tag
Consider B6, for which, in test [1], the binding result is “binds”.

B7: 118N121_B7_1_OK/1-119 (VHH)
VHH: EMQLVESGGGLVQPGGSLRLSCAASGNIPPINAMAWYRQAPGNERELVAAVTSGGGTNYATSVKGRFIISRDDSKNTVDLQMNSLKPEDTAVYYCNLGGWTRTHPFDYWGQGTQVTVSS
notes: C-term myc-His6 tag
Take B7: the binding result in test [1] is “binds”.

B8: 118N121_B3_1_OK/1-123 (VHH)
VHH: EVQLVESGGGLVQPGGSLRLSCAASGRTFSDLALGWFRRAPGKEREHVAAISSSGVTTIYADSVRGRFTISRDEAKNTVYLEMNSLKTDDTAVYYCAARLTMATPNQSQYYYWGQGTQVTVSS
notes: C-term myc-His6 tag
For the molecule B8, the binding result in test [1] is “binds”.

B9: 118N121_A6_2_OK/1-123 (VHH)
VHH: EVQLVESGGGLVQAGGSLRLSCVASGRTFSGYSVGWFRQSPGKEREFVGGINWSGRTYYVDSVKGRFTFSRDNAKNTVYLQMNSLKPEDTAIYLCAVDRFNTIANLPGEYDYWGQGTQVTVSS
notes: C-term myc-His6 tag
Turning to B9, the binding result in test [1] is recorded as “binds”.

B10: 118N121_B8_1_OK/1-135 (VHH)
VHH: EVQLVESGGGLVQDGGSLRLSCAASGQLANFASYAMGWFRQAPGKAREFVAAIRGSGGSTYIADPARSTYYADFVKGRFTISRDNAKNTVYLQMNSLKPEDTAVYYCACETFNSISNLPGEYDYWGQGTQVTVSS
notes: C-term myc-His6 tag
With B10, in test [1], the binding result is “binds”.

B11: 2E5 (VHH)
VHH: EVQLVESGGSLVQPGESLRLSCAASGFTFDDYAMSWVRQAPGKGLEWISSINWSGTHTDYADSVKGRFTISRNNANNTLYLQMNNLKFEDTAVYYCAKNWRDAGTTWFEKSGSAGQGTQVTVSS
notes: C-term myc-His6 tag
For the molecule B11, the “% blocking of Herceptin binding” value in test [2] was more than 90%.

B12: 17D8 (VHH)
VHH: EVQLVESGGSLVPPGGSLRLSCAVSGFTFDDYAMSWVRQAPGKGLEWVSSINWSGTHTDYTDSVKGRFTISRNNANNMLYLQMNSLKSEDTAVYYCAKNWRDAGTTWFEKSGSAGQGTQVTVSS
notes: C-term myc-His6 tag
For B12, the “% blocking of Herceptin binding” value in test [2] was more than 90%.

B13: 5F8 (VHH)
VHH: EVQLVESGGSLVQPGGSLRLSCAASGFTFDDYALSWVRQAPGKGLEWISSINWSGTHTDYADSVKGRFTISRNNANNTLYLQMNNLKFEDTAVYYCAKNWRDAGTTWFEKSGSAGQGTQVTVSS
notes: C-term myc-His6 tag
Take B13: the “% blocking of Herceptin binding” value in test [2] was more than 90%.

B14: 13B2 (VHH)
VHH: EVQLVESGGSLVQPGGSLRLSCAASGFTFDDYAMSWVRQAPGKGLEWISSINWSGTHKDYADSVKGRFTISRNNANNTLYLQMNNLKFEDTAVYYCAKNWRDAGTTWFEKSGSAGQGTQVTVSS
notes: C-term myc-His6 tag
With B14, in test [2], the “% blocking of Herceptin binding” value was more than 90%.

B15: 15G1 (VHH)
VHH: EVQLVESGGSLVPPGGSLRLSCAASGFTFDDYAMSWVRQAPGKGLEWVSSINWSGTHTDYTDSVKGRFTISRNNANNTLYLQMNSLKSEDTAVYYCAKNWRDAGTTWFEKSGSAGQGTQVTVSS
notes: C-term myc-His6 tag
For the molecule B15, the “% blocking of Herceptin binding” value in test [2] was more than 90%.

B16: 13D8 (VHH)
VHH: EVQLVESGGSLVQPGGSLRLSCAASGFTFDDYAMTWVRQASGKGLEWVSSINWSGTHTDYTDSVKGRFTISRNNANNTLYLQMNSLKSEDTAVYYCAKNWGDAGTTWFEKSGSAGQGTQVTVSS
notes: C-term myc-His6 tag
Regarding B16, in test [2], the “% blocking of Herceptin binding” value was more than 90%.

B17: 17E2 (VHH)
VHH: EVQLVESGGSLVPPGGSLRLSCAASGFTFDDYGMSWVRQAPGKGLEWVSSINWSGTHTDYTDSVKGRFTISRNNANNTLYLQMNSLKSEDTAVYYCAKNWGDAGTTWFEKSGSAGQGTQVTVSS
notes: C-term myc-His6 tag
Regarding B17, in test [2], the “% blocking of Herceptin binding” value was more than 90%.

B18: 17E7 (VHH)
VHH: EVQLVESGGSLVQPGGSLRLSCAASGFTFDDYAMSWVRQVPGKGLEWVSSINWSGTHTDYADSVKGRFTISRNNANNTLYLQMNSLKSEDTAVYYCAKNWRDAGTTWFEKSGSAGQGTQVTVSS
notes: C-term myc-His6 tag
Turning to B18, in test [2], the “% blocking of Herceptin binding” value is more than 90%.

B19: 15F9 (VHH)
VHH: EVQLVESGGSLVQPGGSLRLSCAASGFTFDDYAMTWVRQAPGKGLEWVSSINWSGTHTDYTGSVKGRFTISRNNANNTLYLQMNSLKSDDTAVYYCAKNWGDAGTTWFEKSGSAGQGTQVTVSS
notes: C-term myc-His6 tag
For the molecule B19, the “% blocking of Herceptin binding” value in test [2] was more than 90%.

B20: 118N121_A5_2_OK/1-114 (VHH)
VHH: EVQLVESGGGSVQPGGSLRLSCVASGSISSTNAMGWHRQVSGKERELVAIVTDGFTNYADFAKGRFTISRDNAKTTVYLQMNSLQPEDTARYYCRYSGIGTDNWGQGIEVTVSS
notes: C-term myc-His6 tag
B20: the binding result in test [1] is “binds”.

B21: 118N121_A9_2_OK/1-114 (VHH)
VHH: EVQLVESGGGSVQPGGSLRLSCVASGSISSVNAMGWHRQVPGKQRELVAIVTDGFTNYADFAKGRFTISRDNAKTTVYLQMNSLQPEDTARYYCRYSGIGTDNWGQGIEVTVSS
notes: C-term myc-His6 tag
On to B21, for which the binding result in test [1] is “binds”.

B22: 118N121_A8_2_OK/1-124 (VHH)
VHH: EVQLVESGGGLVQAGGSLTLSCVISGLTLESHAMGWFRQAPGEEREFVATIRWSGSATFYSDSVKGRFTISRDNAKNTVYLQMNSLKPEDTAVYYCAARKIYRSLSYYGDYDSWGQGTQVTVSS
notes: C-term myc-His6 tag
Consider B22, for which the binding result in test [1] is on record as “binds”.
